Experimental data published in patent US20190300618A1 (Merck Sharp & Dohme, published 2019).
Positions count from the first letter of the chain named.

B1: Humanized CD27 131A VH6/VL7-hIgG1 (antibody, V domains shown)
VH: EIQLVQSGAEVKKPGASVKVSCKASGYTFTNYGMNWVKQAPGQGLKWMGWINTNTGEPTYAEEFKGRFTFTLDTSISTAYMELSSLRSEDTAVYYCAREGDAMDYWGQGTTVTVSS
VL: EIVLTQSPATLSLSPGERATLSCSASSSVSYMHWYQQKPGQAPKRWIYDTSKLASGVPARFSGSGSGTSYSLTISSLEPEDFATYYCQQWNSYPFTFGQGTKLEIK
notes: human IgG1 constant region; also called hCD27.131A VH6VL7 hulgG1
B2: Humanized CD27 131A VH9/VL9-hIgG1 (antibody, V domains shown)
VH: B1 VH with K38R, I76A
VL: DIQLTQSPSTLSASVGDRVTITCSASSSVSYMHWYQQKPGKAPKRWIYDTSKLASGVPARFSGSGSGTDYTLTISSLQPEDFATYYCQQWNSYPFTFGQGTKLEIK
notes: human IgG1 constant region; also called hCD27.131A VH9VL9 hulgG1
B3: Humanized CD27 131A VH7/VL6-hIgG1 (antibody, V domains shown)
VH: B1 VH with V20I, I76A, S77T, M81L, L83I
VL: B1 VL with S69D, T84V
notes: human IgG1 constant region; also called hCD27.131A VH7VL6 hulgG1
B4: Humanized CD27 131A VH8/VL6-hIgG1 (antibody, V domains shown)
VH: B1 VH with S88N
VL: B1 VL with S69D, T84V
notes: human IgG1 constant region; also called hCD27.131A VH8VL6 hulgG1
B5: Humanized CD27 131A VH7/VL7-hIgG1 (antibody, V domains shown)
VH: B1 VH with V20I, I76A, S77T, M81L, L83I
VL: B1 VL
notes: human IgG1 constant region; also called hCD27.131A VH7VL7 hulgG1
B6: Humanized CD27 131A VH8/VL7-hIgG1 (antibody, V domains shown)
VH: B1 VH with S88N
VL: B1 VL
notes: human IgG1 constant region; also called hCD27.131A VH8VL7 hulgG1
B7: Humanized CD27 131A VH7/VL8-hIgG1 (antibody, V domains shown)
VH: B1 VH with V20I, I76A, S77T, M81L, L83I
VL: B1 VL with L13A, A19V, S69D, L77M, T84V
notes: human IgG1 constant region; also called hCD27.131A VH7VL8 hulgG1
B8: Humanized CD27 131A VH6/VL8-hIgG1 (antibody, V domains shown)
VH: B1 VH
VL: B1 VL with L13A, A19V, S69D, L77M, T84V
notes: human IgG1 constant region; also called hCD27.131A VH6VL8 hulgG1
B9: Humanized CD27 131A VH8/VL8-hIgG1 (antibody, V domains shown)
VH: B1 VH with S88N
VL: B1 VL with L13A, A19V, S69D, L77M, T84V
notes: human IgG1 constant region; also called hCD27.131A VH8VL8 hulgG1

Tests used:
[1] = biological target: human CD27 (A59T), expressed on cells (human) (UniProt P26842); assay: flow cytometry, transiently transfected CHO-K1; empty vector: + 5.32
[2] = biological target: human CD27 (wild type), expressed on cells (human) (UniProt P26842); assay: as above
[3] = biological target: human CD27 (A59T), expressed on cells (human) (UniProt P26842); assay: flow cytometry, transiently transfected CHO-K1; empty vector: GM FITC 212
[4] = biological target: human CD27 (wild type), expressed on cells (human) (UniProt P26842); assay: as above
[5] = biological target: T1, human CD27 (wild type), expressed on cells (human, UniProt P26842 21-260); assay: flow cytometry on primary T cells
T1 construct: on transfected CHO-K1 / CHOK1 cells, transfected HEK293FT reporter cells or primary human T cells; also called hCD27; HsCD27
Method: Labeled cells were washed by re-suspending them in 150 ul of staining buffer (SB) followed by centrifugation at 300 g for 5 minutes. Cells were then resuspended in 100 ul of SB containing primary anti-CD27 antibodies at various concentrations, incubated in the dark at 4° C. for 30 minutes, followed by washing and centrifugation steps as previously described. […] Cells were incubated for 30 minutes at 4° C. in the dark, followed by washing and centrifugation steps. Next, cells were stained with a cocktail of phenotypic antibodies for surface markers (CD3, CD4, CD8, CD11b) and incubated for 30 minutes at 4° C. in the dark, followed by washing and centrifugation steps. […] Samples were acquired in a LSR-Fortessa flow cytometer (BD Biosciences) using the high throughput sampler and data analyzed by FlowJo software (Tree Star Inc).

| Molecule | EC50 above that of 131AVH6VL6-hIgG1 [5] [%] | further results |
| --- | --- | --- |
| Fc-mCD70 (Fc fusion) |  | cells in the + gate [1]: 52.5%; cells in the + gate [2]: 58.9%; GM FITC [3]: 1060; GM FITC [4]: 1280 |
| B1 | ≤ 10 |  |
| B2 | ≤ 10 |  |
| B3 | ≤ 10 |  |
| B4 | ≤ 10 |  |
| B5 | ≤ 10 |  |
| B6 | ≤ 10 |  |
| B7 | ≤ 10 |  |
| B8 | ≤ 10 |  |
| B9 | ≤ 10 |  |
